Assay results: patent publication US20220064276A1 (SCHOLAR ROCK, published 2022)
Where two headings read alike, the source gives them in different places.

Experiments:
[1] = biological target: T1, LTBP-proTGFβ1: transfected human proTGFβ1 presented by endogenous LTBP1/3 of LN229 cells (human); assay: cell-based or functional assay
[2] = biological target: T2, mouse LTBP1-proTGFβ1 complex (mouse, UniProt Q8CG19 339-1712; P04202 30-390); assay: cell-based or functional assay
[3] = biological target: T3, mouse LTBP3-proTGFβ1 complex (mouse, UniProt Q61810 41-1245; P04202 30-390, limits assumed); assay: Octet BLI, IgG captured
T3 construct: Exemplary entries; also called Mo LTBP3-proTGFβ1; Murine LTBP3 proTGFb1
Procedure: (§1) LTBP complex-specific antibodies from the first round of affinity maturation/optimization (SR-AB14, SR-AB16, SR-AB17, SR-AB18, SR-AB19) were selected for a second round of affinity maturation/optimization (i.e., CDR-H3 mutagenesis as described herein) and particular progeny antibodies (SR-AB20, SR-AB21, SR-AB22, SR-AB23, SR-AB24, SR-AB25, SR-AB26, SR-AB27, SR-AB28, and SR-AB29) were assessed for their ability to bind various proTGFβ1 constructs. Binding affinities of the optimized antibodies were measured by Octet against human LTBP1-proTGFβ1, human LTBP3-proTGFbl, mouse LTBP1-proTGFβ1, mouse LTBP3-proTGFbl, and GARP-proTGFβ1 complexes, essentially as described in Example 6. […] The antigens were allowed to associate for 3 minutes followed by a 5-minute dissociation. Kinetics buffer (ForteBio®) was used throughout the experiment, and KD was determined using a 1:1 fitting model for each antibody antigen pair.

[4] = biological target: T2, mouse LTBP1-proTGFβ1 complex; assay: Octet BLI, IgG captured
Procedure: as §1

[5] = biological target: T4, human LTBP1-proTGFβ1 complex (human, UniProt Q14766 347-1721; P01137 30-390); assay: Octet BLI, IgG captured
T4 construct: Large latent complex: one presenting molecule disulfide-linked to a proTGFβ1 dimer; also called Hu LTBP1-proTGFβ1; huLTBP1 proTGFβ1
Procedure: as §1

[6] = biological target: T5, human LTBP3-proTGFβ1 complex (human, UniProt Q9NS15 44-1303; P01137 30-390, limits assumed); assay: SPR Biacore 8K, Fab over captured antigen, Rmax fixed
T5 construct: Exemplary entries; also called Hu LTBP3-proTGFβ1; huLTBP3 proTGFb1
Procedure: (§2) These experiments were performed using the Biacore 8K using the method “multi-cycle kinetics/affinity using Biotin CAPture kit.”
(§3) Data collection rate was set to 10 Hz and the Biotin CAPture step was performed for 300 seconds with a flow rate of 2 μL/minute. The Biotin CAPture reagent was used after a 1:5 dilution in 1× Biacore running buffer. Biotinylated ligands (the various complexes of TGFβ1) were utilized at a concentration of 10 nM and were immobilized to the sensor chip for 180 seconds with a flow rate of 10 μL/minute. […] Analyte contact time was 120 seconds and the dissociation time was 900 seconds. The regeneration cycle utilized was 120 seconds with a flow rate of 10 μL/minute.
(§4) The evaluation method used was “multi-cycle affinity using capture” and a 1:1 binding model was used. […] Global fits were utilized for every KD determination.

[7] = biological target: T3, mouse LTBP3-proTGFβ1 complex; assay: as above
Procedure: as §2, §3, §4

[8] = biological target: T2, mouse LTBP1-proTGFβ1 complex; assay: as above
Procedure: as §2, §3, §4

[9] = biological target: T6, human LRRC33-proTGFβ1 complex (human, UniProt Q86YC3 19-650; P01137 30-390, limits assumed); assay: as above
T6 construct: Exemplary entries; also called huLRRC33 proTGFb1; HuLRRC33-ProTGFb1
Procedure: as §2, §3, §4

[10] = biological target: T7, human GARP-proTGFβ1 complex (human, UniProt Q14392 18-627; P01137 30-390, limits assumed); assay: as above
T7 construct: Exemplary entries; also called Hu GARP-proTGFβ1; huGARP proTGFb1
Procedure: as §2, §3, §4

[11] = biological target: T8, mouse GARP-proTGFβ1 complex (mouse, UniProt G3XA59 18-628; P04202 30-390, limits assumed); assay: as above
T8 construct: Exemplary entries; also called MuGARP-ProTGFb1; Mu GARP-ProTGFβ1
Procedure: as §2, §3, §4

[12] = biological target: T4, human LTBP1-proTGFβ1 complex; assay: as above
Procedure: as §2, §3, §4

[13] = biological target: T9, mouse LRRC33-proTGFβ1 complex (mouse, UniProt Q8BMT4 20-651, limits assumed); assay: as above
T9 construct: also called MuLRRC33-ProTGFb1; Mu LRRC33-ProTGFβ1
Procedure: as §2, §3, §4

[14] = biological target: T4, human LTBP1-proTGFβ1 complex; assay: SPR Biacore 8K, Fab over captured antigen
Procedure: (§5) A Biacore 8K system was employed to determine the monovalent binding affinity and the kinetic parameters for antigen binding of test antibodies. Association and dissociation kinetics of Fab fragments SR-AB42-HuFab, SR-AB63-HuFab and SR-AB43-HuFab to antigen complexes were measured, and resulting ka, kd and KD are provided below. Briefly, the binding kinetics were evaluated by surface plasmon resonance using Biacore 8K (GE Healthcare). Biotinylated capture antigens were immobilized to the chip (10 nM, ˜200 RU loading). A Biotin CAPture sensor chip was used to capture the biotinylated antigens. […] 0 nM was used as a reference. […] 0 nM was used as a reference. Multi-cycle kinetics was employed where each analyte concentration was injected in a separate cycle and the sensor chip surface was regenerated after each cycle. A11 the assays were carried out in freshly prepared 1× HBS-EP+ buffer (10 mM HEPES, 150 mM NaCl, 3 mM EDTA, 0.05% Tween20, pH 7.4). Data were fit globally to a 1:1 binding model to obtain the kinetic parameters. The sensorgram for 0 nM analyte concentration was used as reference.

[15] = biological target: T3, mouse LTBP3-proTGFβ1 complex; assay: SPR Biacore 8K, Fab over captured antigen; mean of 2
Procedure: as §5

[16] = biological target: T7, human GARP-proTGFβ1 complex; assay: Octet (bio-layer interferometry), response at 200 nM antigen; 0.1 nm cutoff designates meaningful binding
Procedure: This experiment was performed at 200, 100, 50, and 25 nM human GARP proTGFb1 and human LTBP1 proTGFbl. […] Surface plasmon resonance (SPR)-based assays

[17] = biological target: T5, human LTBP3-proTGFβ1 complex; assay: Octet BLI, IgG captured
Procedure: (§6) Binding affinities of the optimized antibodies were measured by Octet against human LTBP1-proTGFβ1, human LTBP3-proTGFβ1, mouse LTBP1-proTGFβ1, mouse LTBP3-proTGFβ1, and GARP-proTGFβ1 complexes, essentially as described in Example 6. […] The antigens were allowed to associate for 3 minutes followed by a 5-minute dissociation. Kinetics buffer (ForteBio®) was used throughout the experiment, and KD was determined using a 1:1 fitting model for each antibody antigen pair.

[18] = biological target: T3, mouse LTBP3-proTGFβ1 complex; assay: Octet BLI, IgG captured; remark: listed apart in the source
Procedure: as §6

[19] = biological target: T2, mouse LTBP1-proTGFβ1 complex; assay: Octet BLI, IgG captured; remark: listed apart in the source
Procedure: as §6

[20] = biological target: T4, human LTBP1-proTGFβ1 complex; assay: Octet BLI, IgG captured; remark: listed apart in the source
Procedure: as §6

[21] = biological target: T1, LTBP-proTGFβ1: transfected human …; assay: cell-based or functional assay; remark: listed apart in the source
[22] = biological target: T2, mouse LTBP1-proTGFβ1 complex; assay: cell-based or functional assay; remark: listed apart in the source
[23] = biological target: T1, LTBP-proTGFβ1: transfected human …; assay: cell-based or functional assay; remark: listed apart in the source
[24] = biological target: T2, mouse LTBP1-proTGFβ1 complex; assay: cell-based or functional assay; remark: listed apart in the source

T3 sequence (Q61810 other isoform, or with tags, fused parts or gaps limits assumed, chain 1 of 2): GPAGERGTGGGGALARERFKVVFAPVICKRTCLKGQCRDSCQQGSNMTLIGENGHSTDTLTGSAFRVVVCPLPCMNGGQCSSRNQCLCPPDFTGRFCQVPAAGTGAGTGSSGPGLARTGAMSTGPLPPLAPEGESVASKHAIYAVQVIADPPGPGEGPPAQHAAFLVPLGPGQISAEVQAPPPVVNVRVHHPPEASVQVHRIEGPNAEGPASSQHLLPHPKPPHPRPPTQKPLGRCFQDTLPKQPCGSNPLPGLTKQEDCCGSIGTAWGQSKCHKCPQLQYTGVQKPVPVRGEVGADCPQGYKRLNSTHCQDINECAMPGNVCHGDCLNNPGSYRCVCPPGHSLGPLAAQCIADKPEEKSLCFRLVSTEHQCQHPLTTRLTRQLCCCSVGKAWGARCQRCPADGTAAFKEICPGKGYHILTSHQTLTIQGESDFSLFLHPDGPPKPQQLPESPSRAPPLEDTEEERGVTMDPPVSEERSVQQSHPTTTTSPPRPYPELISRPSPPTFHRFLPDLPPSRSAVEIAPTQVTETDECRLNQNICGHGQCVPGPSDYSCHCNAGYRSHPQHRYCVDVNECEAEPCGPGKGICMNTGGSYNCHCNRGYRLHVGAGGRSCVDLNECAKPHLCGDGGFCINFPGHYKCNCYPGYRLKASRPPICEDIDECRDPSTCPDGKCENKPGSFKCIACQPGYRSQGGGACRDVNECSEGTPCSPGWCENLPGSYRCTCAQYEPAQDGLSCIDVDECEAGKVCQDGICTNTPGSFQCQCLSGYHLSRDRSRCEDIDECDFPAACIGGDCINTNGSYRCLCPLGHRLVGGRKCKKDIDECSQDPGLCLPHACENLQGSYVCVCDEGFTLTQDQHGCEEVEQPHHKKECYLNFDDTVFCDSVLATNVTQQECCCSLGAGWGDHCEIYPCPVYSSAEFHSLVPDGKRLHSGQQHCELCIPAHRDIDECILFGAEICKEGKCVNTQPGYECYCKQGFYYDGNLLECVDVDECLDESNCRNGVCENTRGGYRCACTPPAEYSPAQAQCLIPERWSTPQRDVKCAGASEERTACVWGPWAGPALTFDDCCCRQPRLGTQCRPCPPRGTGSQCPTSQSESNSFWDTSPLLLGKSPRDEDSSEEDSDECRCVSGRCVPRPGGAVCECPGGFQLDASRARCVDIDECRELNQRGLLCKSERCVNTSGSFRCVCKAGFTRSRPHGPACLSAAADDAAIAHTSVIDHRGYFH
T3 sequence (P04202 30-390 limits assumed, chain 2 of 2): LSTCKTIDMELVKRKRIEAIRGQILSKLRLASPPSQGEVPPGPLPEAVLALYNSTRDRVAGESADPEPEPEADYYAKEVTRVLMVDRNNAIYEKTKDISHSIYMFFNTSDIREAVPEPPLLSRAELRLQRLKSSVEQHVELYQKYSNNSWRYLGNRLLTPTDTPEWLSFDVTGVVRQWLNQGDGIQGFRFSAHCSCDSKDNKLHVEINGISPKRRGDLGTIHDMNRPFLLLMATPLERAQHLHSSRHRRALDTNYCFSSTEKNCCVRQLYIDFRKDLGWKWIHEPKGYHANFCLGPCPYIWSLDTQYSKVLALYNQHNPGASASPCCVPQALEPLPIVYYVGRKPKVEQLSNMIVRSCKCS
T5 sequence (Q9NS15 44-1303 limits assumed, chain 1 of 2): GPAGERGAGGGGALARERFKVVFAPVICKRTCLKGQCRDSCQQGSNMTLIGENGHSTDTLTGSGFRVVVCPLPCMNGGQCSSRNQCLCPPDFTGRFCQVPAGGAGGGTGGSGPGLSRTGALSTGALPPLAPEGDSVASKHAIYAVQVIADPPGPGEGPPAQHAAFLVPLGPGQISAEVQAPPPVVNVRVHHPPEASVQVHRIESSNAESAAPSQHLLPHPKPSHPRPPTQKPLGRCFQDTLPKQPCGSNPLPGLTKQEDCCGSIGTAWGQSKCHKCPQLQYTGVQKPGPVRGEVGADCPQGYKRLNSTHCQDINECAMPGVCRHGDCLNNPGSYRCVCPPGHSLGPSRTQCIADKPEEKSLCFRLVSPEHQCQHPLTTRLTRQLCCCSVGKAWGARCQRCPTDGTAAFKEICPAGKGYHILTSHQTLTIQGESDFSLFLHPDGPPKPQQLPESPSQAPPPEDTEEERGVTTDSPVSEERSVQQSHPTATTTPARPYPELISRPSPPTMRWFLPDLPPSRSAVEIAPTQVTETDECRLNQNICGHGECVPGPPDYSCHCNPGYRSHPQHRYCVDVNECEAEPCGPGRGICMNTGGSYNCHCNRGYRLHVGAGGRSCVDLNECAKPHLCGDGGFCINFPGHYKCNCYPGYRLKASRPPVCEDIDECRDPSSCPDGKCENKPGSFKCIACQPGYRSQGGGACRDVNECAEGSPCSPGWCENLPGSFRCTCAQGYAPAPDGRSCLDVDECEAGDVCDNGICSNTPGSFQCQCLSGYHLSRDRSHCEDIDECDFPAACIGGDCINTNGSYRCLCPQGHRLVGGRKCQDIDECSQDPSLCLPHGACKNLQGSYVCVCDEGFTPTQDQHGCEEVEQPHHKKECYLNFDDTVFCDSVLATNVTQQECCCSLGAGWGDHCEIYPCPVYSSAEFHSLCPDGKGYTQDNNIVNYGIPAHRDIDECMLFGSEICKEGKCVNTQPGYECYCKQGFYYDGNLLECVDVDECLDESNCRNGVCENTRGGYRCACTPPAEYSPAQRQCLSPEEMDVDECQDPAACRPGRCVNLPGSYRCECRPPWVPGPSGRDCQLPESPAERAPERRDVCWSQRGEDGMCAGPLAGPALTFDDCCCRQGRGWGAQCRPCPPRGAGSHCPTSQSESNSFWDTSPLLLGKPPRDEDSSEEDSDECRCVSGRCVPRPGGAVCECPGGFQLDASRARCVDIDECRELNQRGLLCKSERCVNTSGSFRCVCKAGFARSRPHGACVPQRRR
T5 sequence (P01137 30-390 limits assumed, chain 2 of 2): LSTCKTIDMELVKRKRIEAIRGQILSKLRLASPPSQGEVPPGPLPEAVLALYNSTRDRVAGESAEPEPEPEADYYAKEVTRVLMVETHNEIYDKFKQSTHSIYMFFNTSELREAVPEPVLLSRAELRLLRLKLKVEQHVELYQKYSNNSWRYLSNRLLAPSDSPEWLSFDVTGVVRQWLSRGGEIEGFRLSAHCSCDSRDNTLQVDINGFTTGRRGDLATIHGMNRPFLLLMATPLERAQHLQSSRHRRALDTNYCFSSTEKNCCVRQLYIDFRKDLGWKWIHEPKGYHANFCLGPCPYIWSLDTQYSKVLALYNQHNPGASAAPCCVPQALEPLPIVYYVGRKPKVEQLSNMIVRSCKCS
T4 sequence (Q14766 347-1721 limits assumed, chain 1 of 2): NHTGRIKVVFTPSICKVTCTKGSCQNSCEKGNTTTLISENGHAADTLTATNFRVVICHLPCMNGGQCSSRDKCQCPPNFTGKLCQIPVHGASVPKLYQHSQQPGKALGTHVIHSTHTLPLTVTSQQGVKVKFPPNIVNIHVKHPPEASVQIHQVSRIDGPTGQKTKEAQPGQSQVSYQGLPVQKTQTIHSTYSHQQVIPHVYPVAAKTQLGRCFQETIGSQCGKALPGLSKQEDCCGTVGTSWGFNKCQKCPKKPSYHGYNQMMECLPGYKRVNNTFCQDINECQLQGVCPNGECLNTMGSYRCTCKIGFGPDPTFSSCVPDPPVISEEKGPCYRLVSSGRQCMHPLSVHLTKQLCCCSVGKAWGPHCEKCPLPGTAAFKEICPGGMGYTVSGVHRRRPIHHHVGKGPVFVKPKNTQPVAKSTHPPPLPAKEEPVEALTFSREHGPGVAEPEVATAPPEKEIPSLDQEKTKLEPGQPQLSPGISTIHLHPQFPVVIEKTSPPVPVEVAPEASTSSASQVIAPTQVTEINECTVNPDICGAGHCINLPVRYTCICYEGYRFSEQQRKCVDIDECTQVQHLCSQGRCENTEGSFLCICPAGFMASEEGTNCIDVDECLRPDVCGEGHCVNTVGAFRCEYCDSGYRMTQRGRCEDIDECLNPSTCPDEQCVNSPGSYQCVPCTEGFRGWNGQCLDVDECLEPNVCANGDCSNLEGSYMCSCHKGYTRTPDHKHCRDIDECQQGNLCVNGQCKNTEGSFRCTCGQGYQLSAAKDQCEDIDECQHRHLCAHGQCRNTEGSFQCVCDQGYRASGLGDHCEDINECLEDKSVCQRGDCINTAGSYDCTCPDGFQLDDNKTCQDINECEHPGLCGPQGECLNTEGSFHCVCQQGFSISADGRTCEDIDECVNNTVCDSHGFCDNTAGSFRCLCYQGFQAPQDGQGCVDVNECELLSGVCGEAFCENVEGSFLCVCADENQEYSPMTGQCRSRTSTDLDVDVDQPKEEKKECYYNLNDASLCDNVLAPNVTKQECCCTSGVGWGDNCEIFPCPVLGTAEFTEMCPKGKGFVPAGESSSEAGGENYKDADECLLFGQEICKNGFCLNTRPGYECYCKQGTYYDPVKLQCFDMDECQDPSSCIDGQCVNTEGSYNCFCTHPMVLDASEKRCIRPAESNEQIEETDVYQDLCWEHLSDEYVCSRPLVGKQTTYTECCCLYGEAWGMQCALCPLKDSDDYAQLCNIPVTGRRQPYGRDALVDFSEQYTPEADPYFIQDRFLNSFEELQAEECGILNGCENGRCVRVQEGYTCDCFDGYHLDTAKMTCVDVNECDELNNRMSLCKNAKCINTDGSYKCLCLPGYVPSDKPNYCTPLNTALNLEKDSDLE
T4 sequence (P01137 30-390 limits assumed, chain 2 of 2): as the sequence (P01137 30-390 limits assumed, chain 2 of 2) above
T1 sequence (P01137 30-390): as the sequence (P01137 30-390 limits assumed, chain 2 of 2) above

Kd [6] | Kd [7] | Kd [8] | Kd [9] | Kd [10] | Kd [11] | Kd [12] | Kd [13] | Kd [14] | koff [14] | kon [14] | binding result [16] | Kd [17] | koff [17] | kon [17] | Kd [18] | Kd [19] | Kd [20] | Binder | other results
– | – | – | – | – | – | – | – | – | – | – | – | – | – | – | – | – | – | SR-AB22 (antibody, IgG1, V domains shown, Cycle 2, lineage SR-AB14) VH: QVQLVESGGGVVQPGRSLRLSCAASGFTFRSYVMHWVRQAPGKGLEWVAVISHEGSLKYYADSVKGRFTISRDNSKNTLYLQMNSLRAEDTAVYYCAVPRIAARRGGFGYWGQGTLVTVSS VL: NFMLTQPHSVSESPGKTVTISCTRSSGNIDNNYVQWYQQRPGSSPTTVIYEDNQRPSGVPDRFSGSIDSSSNSASLTISGLKTEDEADYYCQSYDSDNQGVVFGGGTKLTVL | IC50, endogenous hLTBP assay (CAGA12 luciferase) [1]: 4.62 nM; IC50, mLTBP1 assay (CAGA12 luciferase) [2]: 1.39 nM; Kd [3]: 1.56 nM; Kd [4]: 2.43 nM; Kd [5]: 1.88 nM
0.33 nM | 0.4 nM | 0.198 nM | 6.66 nM | 6.5 nM | 1.95 nM | 0.217 nM | 9.16 nM | 0.074 nM | 0.000136 s⁻¹ | 1.84e+06 M⁻¹ s⁻¹ | – | – | – | – | – | – | – | SR-AB47-HuFab (Fab, V domains shown, Human Fab; also called SR-AB47 Fab) VH: QVQLVESGGGVVQPGRSLRLSCAASGFTFRSYVMHWVRQAPGKGLEWVAVISHEGSGKYYADSVKGRFTISRDNSKNTLYLQMNSLRAEDTAVYYCARPRIAARRGGFGSWGQGTLVTVSS VL: NFMLTQPHSVSESPGKTVTISCTRSSGNIDYNYVQWYQQRPGSSPTTVIYEDNVRPSGVPDRFSGSIDSSSNSASLTISGLKTEDEADYYCQSYDYDNQAVVFGGGTKLTVL | –
– | – | – | – | – | – | – | – | 0.276 nM | 0.000284 s⁻¹ | 1.03e+06 M⁻¹ s⁻¹ | – | – | – | – | – | – | – | SR-AB43-HuFab (Fab, V domains shown, Human Fab; also called SR-AB43 Fab) VH: QVQLVESGGGVVQPGRSLRLSCAASGFTFRSYVMHWVRQAPGKGLEWVAVISHEGSLKYYADSVKGRFTISRDNSKNTLYLQMNSLRAEDTAVYYCARPRIAARRGGFGYWGQGTLVTVSS VL: NFMLTQPHSVSESPGKTVTISCTRSSGNIDYNYVQWYQQRPGSSPTTVIYEDNVRPSGVPDRFSGSIDSSSNSASLTISGLKTEDEADYYCQSYDSDNQRVVFGGGTKLTVL | Kd [15]: 4.43 nM
0.58 nM | 0.65 nM | 0.379 nM | 7.7 nM | 6.55 nM | 2.82 nM | 0.319 nM | 6.95 nM | 0.17 nM | 0.000138 s⁻¹ | 809000 M⁻¹ s⁻¹ | – | – | – | – | – | – | – | SR-AB49-HuFab (Fab, V domains shown, Human Fab; also called SR-AB49 Fab) VH: QVQLVESGGGVVQPGRSLRLSCAASGFTFRSYVMHWVRQAPGKGLEWVAVISHEGSGKYYADSVKGRFTISRDNSKNTLYLQMNSLRAEDTAVYYCARPRIAARRGGFGSWGQGTLVTVSS VL: NFMLTQPHSVSESPGKTVTISCTRSSGNIDYNYVQWYQQRPGSSPTTVIYEDNVRPSGVPDRFSGSIDSSSNSASLTISGLKTEDEADYYCQGYDWDTQGVVFGGGTKLTVL | –
– | – | – | – | – | – | – | – | – | – | – | no binding (tested: 200 nM) | 0.368 nM | 7.47e-05 s⁻¹ | 203000 M⁻¹ s⁻¹ | 3.37 nM | 0.609 nM | 0.486 nM | SR-AB62 (antibody, IgG1, V domains shown, Cycle 3, lineage SR-AB24) VH: QLQLQESGPGLAKPSETLSLTCTVSGGSIRSSSYYWGWIRQPPGKGLEWIGSISYSATTYYNPSLKSRVTISVDTSKNQFSLKLSSVTAADTAVYYCASDPSYDSAAGMDVWGQGTTVTVSS VL: DIQMTQSPSSLSASVGDRVTITCRASKVISSYLNWYQQKPGKAPKLLIYYASSLQSGVPSRFSGSGSGTDFTLTISSLQPEDFATYYCQQSNDWPFTFGGGTKVEIK | koff [20]: 6.82e-05 s⁻¹; kon [20]: 140000 M⁻¹ s⁻¹; IC50, endogenous hLTBP assay (CAGA12 luciferase) [21]: 8.68 nM; IC50, mLTBP1 assay (CAGA12 luciferase) [22]: 0.386 nM
– | – | – | – | – | – | – | – | – | – | – | no binding (tested: 200 nM) | 0.471 nM | 9.18e-05 s⁻¹ | 195000 M⁻¹ s⁻¹ | 2.85 nM | 1.03 nM | 0.467 nM | SR-AB64 (antibody, IgG1, V domains shown, Cycle 3, lineage SR-AB26) VH: QLQLQESGPGLVKPSETLSLTCTVSGGSIRSSSYYWGWIRQPPGKGLEWIGSISYSATTYYNPSLKSRVTISVDTSKNQFSLKLSSVTAADTAVYYCAGDPSYDSIAGMQVWGQGTTVTVSS VL: DIQMTQSPSSLSASVGDRVTITCRASQSISYYLNWYQQKPGKAPKLLIYSASSRQSGVPSRFSGSGSGTDFTLTISSLQPEDFATYYCQQGFDFPLTFGGGTKVEIK | IC50, endogenous hLTBP assay (CAGA12 luciferase) [23]: 3.12 nM; IC50, mLTBP1 assay (CAGA12 luciferase) [24]: 0.268 nM
